Test results taken from patent US20250059285A1.

Molecular target: cynomolgus Gal10-His (WGS isoform) (cynomolgus)
Assay: SPR Biacore 3000 on cynomolgus Gal10 (WGS isoform)

B1: g7B07-mIgG1 (antibody, V domains shown)
VH: EVQLLESGGGLVQPGGSLRLSCAASGFTFRSYDMSWVRQAPGKGLEWVSAIKNGGGITYYADSVKGRFTISRDNSKNTLYLQMNSLRAEDTAVYYCATTHGIGTLGFGSWGQGTLVTVSS
VL: SYELTQPLSVSVALGQTARITCDGNNIGSKSAQWYQQKPGQAPVLVIYADEYRPEGIPERFSGSNSGNTATLTISRAQAGDEADYYCQVWDGSAAVFGGGTQLTVL
Kd: 1.5 nM
